Among the targets are PAK5 (h) (human) (UniProt Q9P286); Abl (M351T) (h) (human) (UniProt P00519); EGFR (h) (human) (UniProt P00533); CDK2/cyclinA (h) (human) (UniProt P24941); PKBγ (h) (human) (UniProt Q9Y243); MRCKβ (h) (human) (UniProt Q9Y5S2); CHK2(R145W) (h) (human) (UniProt O96017); PAK4 (h) (human) (UniProt O96013); CSK (h) (human) (UniProt P41240); CDK5/p35 (h) (human) (UniProt Q00535); cKit (h) (human) (UniProt P10721); Fgr (h) (human) (UniProt P09769); SIK (h) (human) (UniProt P57059); CaMKIV (h) (human) (UniProt Q16566); Arg (h) (human) (UniProt P42684); MSSK1 (h) (human) (UniProt Q9UPE1); SAPK2a (h) (human) (UniProt Q16539); ZIPK (h) (human) (UniProt O43293).

What all share (experiment): cell-based or functional assay
A further experiment deals with T1, Mer (h) (human) (UniProt Q12866).
T1 sequence (looked up): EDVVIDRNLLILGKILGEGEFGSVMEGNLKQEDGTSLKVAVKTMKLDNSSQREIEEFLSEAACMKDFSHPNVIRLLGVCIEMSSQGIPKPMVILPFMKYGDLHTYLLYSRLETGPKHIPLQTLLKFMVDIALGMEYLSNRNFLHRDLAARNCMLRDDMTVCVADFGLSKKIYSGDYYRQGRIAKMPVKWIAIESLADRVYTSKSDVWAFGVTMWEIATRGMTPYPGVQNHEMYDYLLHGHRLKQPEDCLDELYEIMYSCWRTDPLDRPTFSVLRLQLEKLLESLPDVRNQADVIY

Experiment [1] addresses Hck (h) activated (human) (UniProt P08631).
Experiment [2] addresses CDK7/cyclinH/MAT1 (h) (human) (UniProt P50613).
For the next experiment, the target named is T2, eEF-2K (h) (human) (UniProt O00418).
T2 sequence (looked up): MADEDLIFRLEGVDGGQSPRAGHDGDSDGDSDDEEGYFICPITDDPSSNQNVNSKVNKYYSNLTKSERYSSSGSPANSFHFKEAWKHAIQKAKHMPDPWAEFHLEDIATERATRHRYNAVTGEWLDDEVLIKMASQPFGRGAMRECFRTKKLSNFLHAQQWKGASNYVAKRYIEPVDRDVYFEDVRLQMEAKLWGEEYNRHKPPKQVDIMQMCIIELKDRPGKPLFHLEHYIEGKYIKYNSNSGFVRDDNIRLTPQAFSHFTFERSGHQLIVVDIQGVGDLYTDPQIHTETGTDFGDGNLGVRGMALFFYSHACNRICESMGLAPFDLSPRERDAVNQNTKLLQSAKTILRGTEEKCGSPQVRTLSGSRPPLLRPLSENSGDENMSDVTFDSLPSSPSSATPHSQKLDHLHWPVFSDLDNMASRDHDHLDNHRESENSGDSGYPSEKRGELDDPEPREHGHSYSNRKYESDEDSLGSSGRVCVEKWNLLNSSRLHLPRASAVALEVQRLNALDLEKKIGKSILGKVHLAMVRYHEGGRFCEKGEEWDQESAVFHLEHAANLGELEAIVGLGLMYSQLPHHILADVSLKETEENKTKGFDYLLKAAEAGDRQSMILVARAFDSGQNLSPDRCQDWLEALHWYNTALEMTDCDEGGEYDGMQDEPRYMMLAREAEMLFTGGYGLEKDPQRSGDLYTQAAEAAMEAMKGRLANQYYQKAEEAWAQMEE

A further experiment addresses T3, ULK3 (h) (human) (UniProt Q6PHR2).
T3 sequence (looked up): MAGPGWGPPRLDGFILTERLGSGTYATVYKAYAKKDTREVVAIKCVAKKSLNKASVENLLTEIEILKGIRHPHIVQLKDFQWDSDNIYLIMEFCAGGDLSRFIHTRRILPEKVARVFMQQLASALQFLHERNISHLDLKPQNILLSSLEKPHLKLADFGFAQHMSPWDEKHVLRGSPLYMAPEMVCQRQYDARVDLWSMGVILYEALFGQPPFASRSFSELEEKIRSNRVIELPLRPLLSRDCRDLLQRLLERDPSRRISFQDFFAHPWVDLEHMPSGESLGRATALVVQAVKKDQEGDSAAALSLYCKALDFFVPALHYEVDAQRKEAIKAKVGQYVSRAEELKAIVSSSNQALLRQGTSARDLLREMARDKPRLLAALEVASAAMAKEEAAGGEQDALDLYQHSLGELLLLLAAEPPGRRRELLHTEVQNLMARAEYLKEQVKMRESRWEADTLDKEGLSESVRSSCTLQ

Sequence of cKit (h) (human) (P10721 544-976): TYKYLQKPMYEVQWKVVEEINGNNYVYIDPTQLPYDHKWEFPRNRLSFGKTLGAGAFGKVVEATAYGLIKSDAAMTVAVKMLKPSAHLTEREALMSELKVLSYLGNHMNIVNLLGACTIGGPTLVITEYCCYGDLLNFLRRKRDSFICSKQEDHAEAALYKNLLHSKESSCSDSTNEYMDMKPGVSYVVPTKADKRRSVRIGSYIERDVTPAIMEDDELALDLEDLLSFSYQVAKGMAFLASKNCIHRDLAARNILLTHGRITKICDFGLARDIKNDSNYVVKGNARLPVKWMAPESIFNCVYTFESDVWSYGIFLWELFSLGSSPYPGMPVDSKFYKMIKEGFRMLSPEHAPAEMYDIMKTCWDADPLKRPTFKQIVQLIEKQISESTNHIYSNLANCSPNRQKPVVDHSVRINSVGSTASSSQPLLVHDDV
Sequence of Arg (h) (human) (P42684 38-1182 limits assumed): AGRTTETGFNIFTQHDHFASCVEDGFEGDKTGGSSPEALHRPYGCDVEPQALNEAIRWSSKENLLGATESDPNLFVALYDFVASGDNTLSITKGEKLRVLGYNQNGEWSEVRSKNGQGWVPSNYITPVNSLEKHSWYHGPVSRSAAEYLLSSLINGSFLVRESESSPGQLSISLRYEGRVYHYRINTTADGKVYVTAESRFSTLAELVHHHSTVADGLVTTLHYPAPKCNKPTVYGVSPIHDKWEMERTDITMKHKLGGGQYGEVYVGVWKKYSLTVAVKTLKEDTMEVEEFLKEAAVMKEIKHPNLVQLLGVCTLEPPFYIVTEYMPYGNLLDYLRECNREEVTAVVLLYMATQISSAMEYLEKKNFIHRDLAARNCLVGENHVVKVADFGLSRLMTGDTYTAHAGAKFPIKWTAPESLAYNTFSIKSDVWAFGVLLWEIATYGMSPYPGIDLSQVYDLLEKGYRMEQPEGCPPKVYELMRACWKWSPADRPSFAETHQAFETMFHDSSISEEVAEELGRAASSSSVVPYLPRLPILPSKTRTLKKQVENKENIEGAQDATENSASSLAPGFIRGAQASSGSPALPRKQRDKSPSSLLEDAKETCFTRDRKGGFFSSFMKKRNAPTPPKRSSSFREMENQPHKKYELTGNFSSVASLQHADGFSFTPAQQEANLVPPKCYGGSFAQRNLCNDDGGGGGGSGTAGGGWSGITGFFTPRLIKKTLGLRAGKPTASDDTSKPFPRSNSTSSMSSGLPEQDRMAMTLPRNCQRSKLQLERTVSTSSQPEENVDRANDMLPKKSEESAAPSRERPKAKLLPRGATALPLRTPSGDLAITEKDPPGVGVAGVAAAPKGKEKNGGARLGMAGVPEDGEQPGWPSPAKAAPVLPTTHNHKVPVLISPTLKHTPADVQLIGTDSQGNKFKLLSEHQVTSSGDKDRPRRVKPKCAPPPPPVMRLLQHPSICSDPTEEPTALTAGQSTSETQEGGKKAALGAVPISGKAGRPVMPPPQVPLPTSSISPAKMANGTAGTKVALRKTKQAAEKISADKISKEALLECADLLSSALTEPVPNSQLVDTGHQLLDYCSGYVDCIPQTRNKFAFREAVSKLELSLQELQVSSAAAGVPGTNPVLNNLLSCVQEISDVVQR
Sequence of CDK7/cyclinH/MAT1 (h) (human) (P50613 whole entry, chain 1 of 3): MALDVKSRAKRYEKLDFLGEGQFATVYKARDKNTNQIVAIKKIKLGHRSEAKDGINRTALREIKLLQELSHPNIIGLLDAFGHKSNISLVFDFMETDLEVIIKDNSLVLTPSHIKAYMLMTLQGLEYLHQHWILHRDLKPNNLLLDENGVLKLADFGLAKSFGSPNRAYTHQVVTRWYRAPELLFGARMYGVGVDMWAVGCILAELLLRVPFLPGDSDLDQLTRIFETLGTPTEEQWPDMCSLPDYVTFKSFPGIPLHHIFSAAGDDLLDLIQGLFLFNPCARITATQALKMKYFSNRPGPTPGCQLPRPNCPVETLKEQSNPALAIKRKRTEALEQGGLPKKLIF
Sequence of CDK7/cyclinH/MAT1 (h) (human) (P51946 whole entry, chain 2 of 3, further chain): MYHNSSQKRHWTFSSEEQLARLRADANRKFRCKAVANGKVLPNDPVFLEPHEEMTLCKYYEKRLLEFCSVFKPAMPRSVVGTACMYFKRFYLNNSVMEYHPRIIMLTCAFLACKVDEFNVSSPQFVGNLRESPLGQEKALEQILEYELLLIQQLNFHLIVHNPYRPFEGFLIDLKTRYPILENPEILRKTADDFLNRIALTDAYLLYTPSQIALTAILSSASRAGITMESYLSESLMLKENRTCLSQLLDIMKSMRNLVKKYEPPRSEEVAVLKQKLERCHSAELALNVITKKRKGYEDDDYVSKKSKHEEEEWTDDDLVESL
Sequence of CDK7/cyclinH/MAT1 (h) (human) (P51948 whole entry, chain 3 of 3, further chain): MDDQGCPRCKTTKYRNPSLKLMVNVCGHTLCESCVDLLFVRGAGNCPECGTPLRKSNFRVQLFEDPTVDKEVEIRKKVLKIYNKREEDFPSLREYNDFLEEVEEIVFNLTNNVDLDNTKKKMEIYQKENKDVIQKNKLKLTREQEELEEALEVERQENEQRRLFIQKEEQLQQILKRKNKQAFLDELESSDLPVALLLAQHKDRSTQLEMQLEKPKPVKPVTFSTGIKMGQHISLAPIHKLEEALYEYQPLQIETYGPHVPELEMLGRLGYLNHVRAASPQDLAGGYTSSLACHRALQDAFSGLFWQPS
Sequence of MRCKβ (h) (human) (Q9Y5S2 1-473 limits assumed): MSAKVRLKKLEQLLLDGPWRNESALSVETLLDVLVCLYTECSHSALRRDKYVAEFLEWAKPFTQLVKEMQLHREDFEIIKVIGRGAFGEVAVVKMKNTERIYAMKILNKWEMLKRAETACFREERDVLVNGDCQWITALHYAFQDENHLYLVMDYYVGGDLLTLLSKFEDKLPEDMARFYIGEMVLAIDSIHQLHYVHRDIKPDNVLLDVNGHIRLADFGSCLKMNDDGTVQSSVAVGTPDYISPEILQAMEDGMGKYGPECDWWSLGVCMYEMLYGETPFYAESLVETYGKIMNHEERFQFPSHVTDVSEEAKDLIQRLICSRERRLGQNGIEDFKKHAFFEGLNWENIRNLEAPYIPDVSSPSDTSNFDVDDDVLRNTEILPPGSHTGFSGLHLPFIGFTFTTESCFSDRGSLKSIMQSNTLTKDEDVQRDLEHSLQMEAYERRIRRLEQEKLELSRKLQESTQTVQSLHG
Sequence of SAPK2a (h) (human) (Q16539 whole entry): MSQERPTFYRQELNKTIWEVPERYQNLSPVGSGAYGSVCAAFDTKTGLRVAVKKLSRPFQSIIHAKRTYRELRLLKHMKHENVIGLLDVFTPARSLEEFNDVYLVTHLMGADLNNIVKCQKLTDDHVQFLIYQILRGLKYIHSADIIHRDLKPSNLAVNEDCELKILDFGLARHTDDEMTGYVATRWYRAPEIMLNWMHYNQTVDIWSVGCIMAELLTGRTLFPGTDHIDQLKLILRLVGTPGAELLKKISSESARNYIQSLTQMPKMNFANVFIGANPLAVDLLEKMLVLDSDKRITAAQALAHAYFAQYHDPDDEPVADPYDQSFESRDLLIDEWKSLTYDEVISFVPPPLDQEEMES
Sequence of CHK2(R145W) (h) (human) (O96017 5-543 R145W limits assumed): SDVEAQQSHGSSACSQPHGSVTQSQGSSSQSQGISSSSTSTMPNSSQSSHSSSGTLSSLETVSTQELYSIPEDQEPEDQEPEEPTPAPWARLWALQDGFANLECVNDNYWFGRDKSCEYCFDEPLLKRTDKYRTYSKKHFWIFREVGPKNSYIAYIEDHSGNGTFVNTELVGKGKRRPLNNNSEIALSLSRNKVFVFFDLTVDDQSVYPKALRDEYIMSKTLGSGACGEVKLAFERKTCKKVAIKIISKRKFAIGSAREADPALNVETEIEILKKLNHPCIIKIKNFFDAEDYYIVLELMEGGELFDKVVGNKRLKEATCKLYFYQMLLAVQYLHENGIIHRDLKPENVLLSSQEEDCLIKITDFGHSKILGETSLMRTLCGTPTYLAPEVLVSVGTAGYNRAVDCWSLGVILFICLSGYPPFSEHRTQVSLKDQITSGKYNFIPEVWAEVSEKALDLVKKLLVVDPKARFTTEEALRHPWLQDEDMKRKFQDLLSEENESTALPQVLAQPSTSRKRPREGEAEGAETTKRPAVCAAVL
Sequence of PKBγ (h) (human) (Q9Y243 whole entry): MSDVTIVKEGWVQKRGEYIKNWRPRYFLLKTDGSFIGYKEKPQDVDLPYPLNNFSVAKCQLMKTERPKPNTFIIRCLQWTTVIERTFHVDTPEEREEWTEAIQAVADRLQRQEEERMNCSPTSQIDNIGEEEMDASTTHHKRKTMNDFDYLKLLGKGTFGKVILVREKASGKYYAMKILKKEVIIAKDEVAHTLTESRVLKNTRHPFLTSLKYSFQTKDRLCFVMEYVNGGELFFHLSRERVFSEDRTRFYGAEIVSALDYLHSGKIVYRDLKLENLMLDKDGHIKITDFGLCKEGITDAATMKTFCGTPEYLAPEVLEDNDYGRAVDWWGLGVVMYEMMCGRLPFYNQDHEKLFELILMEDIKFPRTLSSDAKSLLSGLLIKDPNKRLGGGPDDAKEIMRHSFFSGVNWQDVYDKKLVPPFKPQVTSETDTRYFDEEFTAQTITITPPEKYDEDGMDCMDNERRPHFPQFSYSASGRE

With MMI-0300 (peptide), the % activity at 100 µM with PAK5 (h) (human) is 110%; with Abl (M351T) (h) (human), 90%; with EGFR (h) (human) it was 21%; with CDK2/cyclinA (h) (human), 86%; with PKBγ (h) (human) it was 20%; in the experiment with Mer (h) (human) it was 52%. Besides, the % activity at 100 µM was 83% with MRCKβ (h) (human); 33% in the experiment with CHK2(R145W) (h) (human); 82% in [1]; 65% in experiment [2]; 94% in the experiment with PAK4 (h) (human); 91% with eEF-2K (h) (human). The % activity at 100 µM was found to be 49% with CSK (h) (human); 79% with CDK5/p35 (h) (human); 53% in the experiment with cKit (h) (human); 167% with ULK3 (h) (human); 60% in the experiment with Fgr (h) (human); 66% in the experiment with SIK (h) (human). Besides, the % activity at 100 µM came to 17% with CaMKIV (h) (human); 72% in the experiment with Arg (h) (human); 77% with MSSK1 (h) (human); 90% with SAPK2a (h) (human); 28% with ZIPK (h) (human).

The values are drawn from US20160136234A1.
